In assay [1] the target is Recombinant human Bcl-xL with a 25 amino acid truncation of its C-terminus (human) (UniProt Q07817). The assay can be described thus: competition phage ELISA.
The target in assay [2] is mouse Mcl-1 with truncations of 151 amino acid residues at its N-terminus and 23 residues at its C-terminus (mouse) (UniProt P97287). The assay is described as follows: competition phage ELISA. A general note: In an ELISA, binding on a coated surface is turned into a signal by an enzyme label.
Sequence of mouse Mcl-1 with truncations of 151 amino acid residues at its N-terminus and 23 residues at its C-terminus (mouse) (P97287 152-308): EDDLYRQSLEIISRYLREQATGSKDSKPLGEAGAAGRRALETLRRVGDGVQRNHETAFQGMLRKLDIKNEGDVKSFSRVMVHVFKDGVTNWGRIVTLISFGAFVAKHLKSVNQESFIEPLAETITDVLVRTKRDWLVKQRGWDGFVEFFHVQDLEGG

As usually defined, the IC50 is the concentration that inhibits the measured activity by half.

Sequence of Recombinant human Bcl-xL with a 25 amino acid truncation of its C-terminus (human) (Q07817 1-208): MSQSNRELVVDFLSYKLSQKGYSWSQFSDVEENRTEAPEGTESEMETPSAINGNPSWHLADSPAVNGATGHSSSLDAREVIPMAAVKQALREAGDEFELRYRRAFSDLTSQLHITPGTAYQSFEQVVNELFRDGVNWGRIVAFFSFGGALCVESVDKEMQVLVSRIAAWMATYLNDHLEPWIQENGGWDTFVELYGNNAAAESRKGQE

Regarding Bim BH3 I6A, phage-displayed (peptide), in assay [1], the Fold/wt was 3 fold and the IC50 stood at 8 nM. In addition, in assay [2], the Fold/wt was determined as 1 fold and the concentration for half-maximal inhibition (IC50) amounted to 11 nM.
On to Bim BH3 D17A, phage-displayed (peptide), for which, in assay [2], the Fold/wt worked out at 28 fold, the IC50 was 256 nM and the fold effect on binding came to 15 fold.
As to “mNoxaA BH3 D26A, phage-displayed (peptide)”, in assay [2], the Fold/wt amounted to 2 fold and the half-inhibitory concentration (IC50) is 62 nM.
Take Bim BH3 R26A, phage-displayed (peptide): in assay [1], the Fold/wt was 1 fold and the IC50 was determined as 4 nM. In assay [2], the Fold/wt stood at 1 fold and the IC50 turned out to be 8 nM.
With Bim BH3 G16E, phage-displayed (peptide), in assay [2], the Fold/wt was 3 fold, the IC50 turned out to be 27 nM and the fold effect on binding came to 38 fold.
Consider Bim BH3 A24E, phage-displayed (peptide), for which the Fold/wt in assay [1] and in assay [2] was 1 fold throughout. For the same substance, the IC50 in assay [1] worked out at 2 nM; in assay [2], 8 nM.
Take Bim BH3 E11A, phage-displayed (peptide): in assay [1], the Fold/wt is 1 fold and the half-inhibitory concentration (IC50) was 4 nM. In assay [2], this substance displayed a Fold/wt of 1 fold and a half-inhibitory concentration (IC50) of 10 nM.
In the case of Bim BH3 R14A, phage-displayed (peptide), in assay [1], the Fold/wt came to 2 fold and the IC50 stood at 5 nM. For the same substance, in assay [2], the Fold/wt was found to be 1 fold and the half-maximal inhibitory concentration (IC50) stood at 10 nM.
On the same counts, the results for Bim BH3 D1A, phage-displayed (peptide) are 1 fold, 3 nM, 1 fold and 10 nM.
The corresponding values for Bim BH3 Y22A, phage-displayed (peptide) are 1 fold, 4 nM, 1 fold and 12 nM.
For Bim BH3 R25A, phage-displayed (peptide), in assay [1], the Fold/wt is 1 fold and the IC50 is 2 nM. In assay [2], this substance returned a Fold/wt of 1 fold and an IC50 of 8 nM.
For Bim BH3 A21E, phage-displayed (peptide), the Fold/wt in assay [1] is 1 fold; in assay [2], 2 fold. In addition, the values for the 50% inhibitory concentration (IC50) in assay [1] and in assay [2] were 3 nM and 16 nM, respectively.
Regarding Bim BH3 N20A, phage-displayed (peptide), in assay [1], the Fold/wt was 2 fold and the IC50 is 5 nM. For the same substance, in assay [2], the Fold/wt came to 1 fold and the half-inhibitory concentration (IC50) was determined as 7 nM.
On the same counts, the results for Bim BH3 M2A, phage-displayed (peptide) are 2 fold, 4 nM, 1 fold and 13 nM.
Bim BH3 Q10A, phage-displayed (peptide): in assay [1], the Fold/wt worked out at 1 fold and the IC50 was 4 nM. In assay [2], the Fold/wt was determined as 1 fold and the IC50 amounted to 10 nM.
For the substance Bim BH3 E18A, phage-displayed (peptide), in assay [1], the Fold/wt was 3 fold and the half-maximal inhibitory concentration (IC50) stood at 8 nM. In addition, in assay [2], the Fold/wt came out at 9 fold and the IC50 came out at 80 nM.
As to Bim BH3 E5A, phage-displayed (peptide), in assay [1], the Fold/wt is 1 fold and the IC50 was found to be 3 nM. Moreover, in assay [2], the Fold/wt was 1 fold and the IC50 worked out at 10 nM.
As to Bim BH3 A9E, phage-displayed (peptide), in assay [2], the Fold/wt was determined as 3 fold and the IC50 was 32 nM.
As to Bim BH3 R3A, phage-displayed (peptide), in assay [1], the Fold/wt turned out to be 1 fold and the IC50 amounted to 3 nM. In assay [2], the Fold/wt was 1 fold and the concentration for half-maximal inhibition (IC50) came out at 9 nM.
As for Bim BH3 P4A, phage-displayed (peptide), the Fold/wt in assay [1] and in assay [2] was 1 fold throughout. Further, the values for the 50% inhibitory concentration (IC50) in assay [1] and in assay [2] were 3 nM and 12 nM, respectively.

For the origin of these results see patent US20090048164A1.
